Laboratory results from patent publication US20220324970A1 (Janssen / Centocor, published 2022).
Read-outs that look alike come from different tables or passages of the source.

T1: hpIgR_D2-D3
T1 construct: HIS-tagged construct from HEK293 cells; also called human pIgR extracellular domain 2-domain 3 (D2-D3); hD2-D3
T1 HIS-tagged domain construct: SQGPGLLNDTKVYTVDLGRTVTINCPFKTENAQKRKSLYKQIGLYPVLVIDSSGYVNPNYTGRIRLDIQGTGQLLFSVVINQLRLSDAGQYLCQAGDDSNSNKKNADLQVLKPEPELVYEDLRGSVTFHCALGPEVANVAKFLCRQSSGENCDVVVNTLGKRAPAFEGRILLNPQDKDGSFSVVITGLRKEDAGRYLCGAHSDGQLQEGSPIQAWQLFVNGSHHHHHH

T2: hpIgR_D3
T2 construct: HIS-tagged construct from HEK293 cells; also called human pIgR extracellular domain 3 (D3); hD3
T2 HIS-tagged domain construct: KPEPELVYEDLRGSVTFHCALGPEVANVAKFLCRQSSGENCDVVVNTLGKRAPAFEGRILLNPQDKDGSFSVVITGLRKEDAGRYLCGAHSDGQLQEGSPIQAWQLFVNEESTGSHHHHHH

T3: human pIgR extracellular domain 4-domain 5 (D4-D5) (human, UniProt P01833 350-565)
T3 construct: HIS-tagged construct made in HEK293 cells; also called hpIgR domains 4-5
T3 chain: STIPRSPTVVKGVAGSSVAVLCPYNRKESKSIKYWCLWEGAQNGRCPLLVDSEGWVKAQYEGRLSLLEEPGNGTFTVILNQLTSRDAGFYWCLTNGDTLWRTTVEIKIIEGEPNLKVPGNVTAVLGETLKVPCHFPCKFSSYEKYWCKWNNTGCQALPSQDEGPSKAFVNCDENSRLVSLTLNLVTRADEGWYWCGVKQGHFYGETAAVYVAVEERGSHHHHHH


What was measured:
[1] = biological target: T4, human pIgR, full-length, on cells (human, UniProt P01833 19-764); test: flow cytometry on MDCK-hpIgR cells
T4 construct: whole, on cells; Used for the flow cytometry EC50 values (MDCK-hpIgR) and for the transcytosis read-outs; also called hpIgR; cell-surface hpIgR
T4 sequence (P01833 19-764): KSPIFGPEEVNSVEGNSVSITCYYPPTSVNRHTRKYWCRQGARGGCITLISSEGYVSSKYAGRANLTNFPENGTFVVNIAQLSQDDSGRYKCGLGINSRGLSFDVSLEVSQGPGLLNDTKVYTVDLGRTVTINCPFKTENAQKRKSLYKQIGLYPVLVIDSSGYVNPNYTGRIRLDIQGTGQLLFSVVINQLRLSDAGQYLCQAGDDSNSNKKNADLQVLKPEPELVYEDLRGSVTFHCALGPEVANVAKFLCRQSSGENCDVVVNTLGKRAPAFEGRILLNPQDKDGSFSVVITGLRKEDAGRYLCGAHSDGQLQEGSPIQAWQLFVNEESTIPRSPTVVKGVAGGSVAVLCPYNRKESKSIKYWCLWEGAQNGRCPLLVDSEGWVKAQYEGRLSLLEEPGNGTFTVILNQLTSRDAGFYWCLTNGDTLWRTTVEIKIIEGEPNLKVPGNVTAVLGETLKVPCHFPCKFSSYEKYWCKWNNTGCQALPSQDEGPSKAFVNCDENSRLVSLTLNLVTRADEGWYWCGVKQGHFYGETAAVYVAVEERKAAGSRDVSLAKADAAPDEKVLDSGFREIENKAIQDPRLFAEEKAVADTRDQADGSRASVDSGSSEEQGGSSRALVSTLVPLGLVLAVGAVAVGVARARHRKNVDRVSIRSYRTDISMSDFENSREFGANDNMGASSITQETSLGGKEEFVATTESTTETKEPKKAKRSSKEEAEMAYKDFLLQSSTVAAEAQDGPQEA
Procedure: (§1) Flow Cytometry was performed as follows. To test whether VHH-mono-Fc molecules recognize cell-surface hpIgR, Madin-Darby canine kidney (MDCK) cells engineered to express full-length hpIgR were used. Cells were cultured in Dulbecco's modified Eagle's medium containing 10% fetal calf serum at 37° C. with 5% CO₂. Cells were split into equal fractions (≈70,000 cells) and incubated with increasing concentrations of VHH-mono-Fc molecules for 30 min at 4 C. […] Cells were washed twice with cold staining buffer, resuspended in running buffer and analyzed with an iQue Screener (IntelliCyt Corporation). Binding was assessed by RL1 (A647) Geomeans from the live cell population and EC50 was calculated by fitting log VHH concentration versus MFI in Prism (Graphpad).

[2] = biological target: T5, human pIgR extracellular domain 2 (D2) (human, UniProt P01833 128-242); test: BLI (Octet RED384), 1:1 fit, 25 C, PBS
T5 construct: HIS-tagged construct made in HEK293 cells; also called hpIgR domain 2
Procedure: (§2) Bio-layer Interferometry was performed as follows. […] Data were collected with Octet Data Acquisition version 7.1.0.87 (ForteBio) and analyzed using Octet Data Analysis version 7.1 (ForteBio). To measure binding kinetics between VHH-mono-Fc molecules and HIS-tagged pIgR proteins, VHH-mono-Fc was immobilized on amine-reactive generation-2 (ARG2) biosensors according to manufacturer's instructions and increasing concentrations of pIgR proteins were exposed to sensor-immobilized VHH. In some cases, HIS-tagged pIgR proteins were immobilized on anti-HIS biosensors and exposed to increasing concentrations of VHH-mono-Fc molecules. Association and dissociation rates were measured by the shift in wavelength (nm). […] All reactions were performed at 25° C. in PBS.

[3] = biological target: T6, human pIgR extracellular domain 1-domain 2 (D1-D2) (human, UniProt P01833 19-240); test: BLI (Octet RED384), 1:1 fit, 25 C, PBS
T6 construct: HIS-tagged construct made in HEK293 cells
T6 sequence (P01833 other isoform, or with tags, fused parts or gaps limits assumed): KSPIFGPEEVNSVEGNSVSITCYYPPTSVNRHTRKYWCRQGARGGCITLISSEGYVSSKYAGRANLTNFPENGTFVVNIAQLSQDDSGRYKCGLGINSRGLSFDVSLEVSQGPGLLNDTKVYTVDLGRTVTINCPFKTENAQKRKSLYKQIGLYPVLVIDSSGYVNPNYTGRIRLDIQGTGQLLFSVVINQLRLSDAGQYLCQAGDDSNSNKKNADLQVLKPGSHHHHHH
Procedure: as §2

[4] = biological target: T7, human pIgR extracellular domain (ECD) (human, UniProt P01833 19-638); test: BLI (Octet RED384), 1:1 fit, 25 C, PBS
T7 construct: also called hpIgR ECD
T7 sequence (P01833 other isoform, or with tags, fused parts or gaps): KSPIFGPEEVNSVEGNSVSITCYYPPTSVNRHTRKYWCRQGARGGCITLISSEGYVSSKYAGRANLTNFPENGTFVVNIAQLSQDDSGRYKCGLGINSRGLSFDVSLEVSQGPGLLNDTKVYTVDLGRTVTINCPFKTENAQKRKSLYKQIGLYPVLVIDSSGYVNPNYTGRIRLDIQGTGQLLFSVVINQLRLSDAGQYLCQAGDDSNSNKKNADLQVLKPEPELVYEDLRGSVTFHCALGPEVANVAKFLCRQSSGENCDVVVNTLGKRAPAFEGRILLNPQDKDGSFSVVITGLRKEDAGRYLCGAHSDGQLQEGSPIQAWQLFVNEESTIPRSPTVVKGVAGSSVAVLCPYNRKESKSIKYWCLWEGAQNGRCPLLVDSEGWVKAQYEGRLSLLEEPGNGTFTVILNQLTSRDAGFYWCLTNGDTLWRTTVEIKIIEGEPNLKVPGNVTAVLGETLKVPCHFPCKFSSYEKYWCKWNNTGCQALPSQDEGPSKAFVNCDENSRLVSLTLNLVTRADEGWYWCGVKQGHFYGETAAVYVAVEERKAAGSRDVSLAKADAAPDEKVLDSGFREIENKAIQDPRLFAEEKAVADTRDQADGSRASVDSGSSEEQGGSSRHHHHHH
Procedure: as §2

hpIgR_D2-D3 [5] = biological target: T1, hpIgR_D2-D3; test: BLI (Octet RED384), 1:1 fit, 25 C, PBS
Procedure: as §2

[6] = biological target: T4, human pIgR, full-length, on cells; test: flow cytometry on MDCK-hpIgR cells; summary table, repeats Table 1
Procedure: as §1

[7] = biological target: T4, human pIgR, full-length, on cells; test: cell-based or functional assay
[8] = biological target: T4, human pIgR, full-length, on cells; test: cell-based or functional assay; remark: listed apart in the source
[9] = biological target: T7, human pIgR extracellular domain (ECD); test: BLI; summary table, repeats Table 1
[10] = biological target: T7, human pIgR extracellular domain (ECD); test: BLI; summary table, repeats Table 1; remark: listed apart in the source
[11] = biological target: T5, human pIgR extracellular domain 2 (D2); test: BLI (Octet RED384), 1:1 fit, 25 C, PBS; column kdis
[12] = biological target: T6, human pIgR extracellular domain …; test: as above
[13] = biological target: T7, human pIgR extracellular domain (ECD); test: as above
hpIgR_D2-D3 [14] = biological target: T1, hpIgR_D2-D3; test: as above
[15] = biological target: T4, human pIgR, full-length, on cells; test: cell-based or functional assay; remark: listed apart in the source
[16] = biological target: T4, human pIgR, full-length, on cells; test: flow cytometry on MDCK-hpIgR cells; summary table, repeats Table 1; remark: listed apart in the source
[17] = biological target: T7, human pIgR extracellular domain (ECD); test: ECL (MSD), hpIgR-ECD coated, anti-Fc detection
Procedure: (§3) To check whether VHH recognizes a buried epitope on pIgR, EC₅₀ values were measured for VHH-mono-Fc molecules binding to hpIgR-ECD protein by electrochemiluminescence using two different detection antibodies, an anti-Fc antibody and an anti-VHH antibody. pIgR ECD (10 μg/ml in PBS) was coated on high-bind MSD plates for 2 hours at RT with 1000 rpm, incubated with blocking buffer for 1 hour at RT, incubated with VHH-mono-Fc molecules (increasing concentrations in PBS) for 2 hours at RT with 1000 rpm, washed 3× with PBT, incubated with ruthenylated secondary antibody (2 μg/ml in PBS) for 1 hour at RT with 1000 rpm, washed 3× with PBT and read plates in 40 ul reading buffer using the MSD imager. EC50 was calculated by fitting log VHH concentration versus log ECLU in Prism (Graphpad). The increase in EC₅₀ (>50-fold) due to anti-VHH detection was used as a measure to determine whether VHH recognized buried epitope on pIgR.

[18] = biological target: T8, human pIgR extracellular domain 1 (D1) (human, UniProt P01833 19-127); test: ECL (MSD) heat map, HIS-tagged construct captured via anti-HIS, anti-human-Fc detection;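 also: VHH-mono-Fc molecules tested at 100 µg/ml for 2 h on captured His-tagged pIgR constructs (10 µg/ml), read-out as electrochemiluminescence units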
T8 construct: HIS-tagged construct made in HEK293 cells; also called hpIgR domain-1
T8 sequence (P01833 other isoform, or with tags, fused parts or gaps limits assumed): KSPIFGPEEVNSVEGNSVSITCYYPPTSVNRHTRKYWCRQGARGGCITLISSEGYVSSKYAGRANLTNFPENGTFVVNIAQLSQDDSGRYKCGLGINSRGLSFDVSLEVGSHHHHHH
Procedure: (§4) A meso-scale discovery (MSD) platform was used for conducting epitope mapping and epitope burial studies. To test the binding of VHH-mono-Fc molecules to purified pIgR protein constructs, Streptavidin MSD plates were coated with a biotinylated anti-HIS antibody (2 μg/ml in PBS) for 1 hour at RT with 1000 rpm, washed 3× with PBT (PBS+0.1% Tween-20), incubated with blocking buffer for 1 hour at RT, incubated with His-tagged pIgR proteins (10 μg/ml in PBS) for 2 hours at RT with 1000 rpm, washed 3× with PBT, incubated with VHH-mono-Fc molecules (100 μg/ml in PBS) for 2 hours at RT with 1000 rpm, washed 3× with PBT, incubated with ruthenylated-anti-human-Fc antibody (2 μg/ml in PBS) for 1 hour at RT with 1000 rpm, washed 3× with PBT and read plates in 40 ul reading buffer using the MSD imager. ECLU values were plotted as a heatmap.
(§5) Binding of VHH-mFc molecules were tested to immobilized pIgR constructs by the electrochemiluminescence method.

hpIgR_D3 = biological target: T2, hpIgR_D3; test: as above
Procedure: as §4, §5

[19] = biological target: T9, human pIgR extracellular domain 5 (D5) (human, UniProt P01833 460-565); test: as above
T9 construct: HIS-tagged construct made in HEK293 cells; also called hpIgR domain 5
Procedure: as §4, §5

[20] = biological target: T7, human pIgR extracellular domain (ECD); test: ECL (MSD), hpIgR-ECD coated, anti-VHH detection
[21] = biological target: T7, human pIgR extracellular domain (ECD); test: BLI (Octet), VHH-mono-Fc and hpIgR ectodomain
[22] = biological target: T7, human pIgR extracellular domain (ECD); test: ECL (MSD), anti-VHH detection against anti-Fc detection
Procedure: as §3

[23] = biological target: T3, human pIgR extracellular domain …; test: ECL (MSD) heat map, HIS-tagged construct captured via anti-HIS, anti-human-Fc detection
[24] = biological target: T5, human pIgR extracellular domain 2 (D2); test: as above
Procedure: as §4, §5

[25] = biological target: T3, human pIgR extracellular domain …; test: BLI (Octet RED384), 1:1 fit, 25 C, PBS
[26] = biological target: T7, human pIgR extracellular domain (ECD); test: BLI (Octet RED384), 1:1 fit, 25 C, PBS; remark: listed apart in the source
[27] = biological target: T3, human pIgR extracellular domain …; test: BLI (Octet RED384), 1:1 fit, 25 C, PBS; column kdis
[28] = biological target: T7, human pIgR extracellular domain (ECD); test: as above; remark: listed apart in the source
[29] = biological target: T6, human pIgR extracellular domain …; test: ECL (MSD) heat map, HIS-tagged construct captured via anti-HIS, anti-human-Fc detection
hpIgR_D2-D3 [30] = biological target: T1, hpIgR_D2-D3; test: as above

Row | Binder | EC50 [1] [nM] | EC50 [6] [nM] | increase in their apical concentration relative to control VHH (MDCK-hpIgR monolayers) [7] [fold] | Transcytosis (Fold Incr.) [8] [fold] | Kd [9] [nM] | Kd [10] [nM] | For. Trans. (Fold Incr.) [15] [fold] | Rev. Trans (Fold Incr.) [15] [fold] | EC50 [16] [nM] | EC50 [17] [nM] | binding result [18] | binding result (hpIgR_D3) | binding result [19] | EC50 [20] [nM] | Kd [21] [nM] | Fold change in EC50 [22] [fold] | further results
1 | VHH4-linker-mono-Fc protein (Fc fusion, also called VHH4-mono-Fc; hpIgR_073) EVQVVESGGGLVQAGGSLRLSCAVSGTSVSSNAMGWYRQAPGKQREWVGFIDRIATTTIATSVKGRFAITRDNAKNTVYLQMSGLKPEDTAVYYCNHPLTARWGQGTQVTVSSEPKTPKPQPQPQLQPQPNPTTESKSPKSPAPELLGGPSVFLFPPKPKDTLMISRTPEVTCVVVDVSHEDPEVKFNWYVDGVEVHNAKTKPREEQYNSTYRVVSVLTVLHQDWLNGKEYKCKVSNKALPAPIEKTISKAKGQPREPQVYTKPPSREEMTKNQVSLSCLVKGFYPSDIAVEWESNGQPENNYKTTVPVLDSDGSFRLASYLTVDKSRWQQGNVFSCSVMHEALHNHYTQKSLSLSPGK | 32.9 | 32.9 | > 10 | 12.6 | 22 | 22 | 15.1 | 8 | 32.9 | 1.1 | no binding (tested: 100 ug/ml (single concentration)) | no binding (tested: 100 ug/ml (single concentration)) | no binding (tested: 100 ug/ml (single concentration)) | 206 | 22 | 180 | Kd [2]: 83.8 nM; kon [2]: 19100 M⁻¹ s⁻¹; Kd [3]: 77.3 nM; kon [3]: 19200 M⁻¹ s⁻¹; Kd [4]: 76 nM; kon [4]: 14400 M⁻¹ s⁻¹; Kd (hpIgR_D2-D3 [5]): 86.1 nM; kon (hpIgR_D2-D3 [5]): 14000 M⁻¹ s⁻¹; koff [11]: 0.0016 s⁻¹; koff [12]: 0.00149 s⁻¹; koff [13]: 0.0011 s⁻¹; koff (hpIgR_D2-D3 [14]): 0.0012 s⁻¹; binding result [23]: no binding (tested: 100 ug/ml (single concentration))
2 | VHH9-linker-mono-Fc protein (Fc fusion, made in CHO cells; also called VHH9-mono-Fc; hpIgR_221) QVQLVESGGGLVQAGGSLRLSCAVSGRTFSTYRMGWFRQAPGKERSFVAAISWSGGSTTYADPVKGRFTISRDNAKNTVYLRMNSLKPEDTAVYYCNDQRGYWGQGTLVTVSSEPKTPKPQPQPQLQPQPNPTTESKSPKSPAPELLGGPSVFLFPPKPKDTLMISRTPEVTCVVVDVSHEDPEVKFNWYVDGVEVHNAKTKPREEQYNSTYRVVSVLTVLHQDWLNGKEYKCKVSNKALPAPIEKTISKAKGQPREPQVYTKPPSREEMTKNQVSLSCLVKGFYPSDIAVEWESNGQPENNYKTTVPVLDSDGSFRLASYLTVDKSRWQQGNVFSCSVMHEALHNHYTQKSLSLSPGK | 1.5 | 1.5 | > 10 | 22.4 | 4 | 4 | 24.2 | 6.6 | 1.5 | 0.4 | no binding (tested: 100 ug/ml (single concentration)) | no binding (tested: 100 ug/ml (single concentration)) | no binding (tested: 100 ug/ml (single concentration)) | 0.8 | 4 | 1.8 | binding result [24]: no binding (tested: 100 ug/ml (single concentration)); Kd [25]: 12.6 nM; kon [25]: 133000 M⁻¹ s⁻¹; Kd [26]: 19.6 nM; kon [26]: 79300 M⁻¹ s⁻¹; koff [27]: 0.00169 s⁻¹; koff [28]: 0.00156 s⁻¹; binding result [29]: no binding (tested: 100 ug/ml (single concentration)); binding result (hpIgR_D2-D3 [30]): no binding (tested: 100 ug/ml (single concentration))
